Tests used:
[1] = molecular target: phosphorylated HemRREC (phospho-receiver domain of HemR) (Leptospira biflexa); assay: SEC
[2] = molecular target: phosphorylated HemRFL (full-length HemR) (Leptospira biflexa); assay: SEC

| stoichiometry N [1] | stoichiometry N [2] | Substance |
| --- | --- | --- |
| 2 |  | phosphorylated HemRREC (phospho-receiver domain of HemR) (domain or fragment) |
|  | 2 | phosphorylated HemRFL (full-length HemR) (natural protein) |
